Residue numbers refer to the chain shown, from its start. Read-outs that look alike come from different tables or passages of the source.
Legend:
[1] = biological target: T1, human BCMA on NCI-H929 cells (ATCC, CRL-9068) (human, UniProt Q02223 1-184); test: cell-based or functional assay
T1 sequence (looked up): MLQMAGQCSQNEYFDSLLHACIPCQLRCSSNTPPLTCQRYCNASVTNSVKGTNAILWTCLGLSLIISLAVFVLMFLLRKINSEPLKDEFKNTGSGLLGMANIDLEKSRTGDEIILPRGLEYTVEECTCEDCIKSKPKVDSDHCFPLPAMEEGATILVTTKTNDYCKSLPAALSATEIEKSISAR

[2] = biological target: T1, human BCMA on NCI-H929 cells (ATCC, …); test: cell-based or functional assay; remark: listed apart in the source
[3] = biological target: T1, human BCMA on NCI-H929 cells (ATCC, …); test: cell-based or functional assay; remark: listed apart in the source
[4] = biological target: T2, cynomolgus monkey CD3 (TCR/CD3 complex) on cynomolgus monkey T cells (cynomolgus monkey); test: flow cytometry (FACS) on cynomolgus monkey T cells
T2 construct: whole, on cells

[5] = biological target: T3, human CD3 (TCR/CD3 complex) on human T cells (human, UniProt P07766 23-207); test: flow cytometry (FACS) on human T cells, Experiment 1
T3 construct: whole, on cells

[6] = biological target: T3, human CD3 (TCR/CD3 complex) on human T …; test: flow cytometry (FACS) on human T cells, Experiment 3
[7] = biological target: T4, cynomolgus monkey BCMA (ACRO Biosystems, #BCA-C82F4) (cynomolgus monkey, UniProt A0A2K5UD97 1-53); test: BLI (Octet Red96e), cyBCMA.Fc on SA sensor, 1:1 global fitting
T4 construct: Bought protein; also called cyBCMA.Fc

[8] = biological target: T4, cynomolgus monkey BCMA (ACRO …); test: BLI; KD for cynomolgus monkey BCMA divided by KD for human BCMA
[9] = biological target: T5, biotinylated human BCMA-Fc, Avitag recombinant protein (ACRO Biosystems, #BC7-H82F0) (human, UniProt Q02223 1-54, biotinylated (Avitag)); test: BLI (Octet Red96e), biotinylated BCMA-Fc on SA sensor, 1:1 global fitting;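 also: Anti-BCMA antibodies analysed as binding partners of the captured BCMA antigen, with reference signals removed by double referencing before kinetic fitting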
T5 construct: extracellular domain; Bought protein; also called huBCMA.Fc; recombinant human BCMA-ECD-Fc
T5 sequence (looked up): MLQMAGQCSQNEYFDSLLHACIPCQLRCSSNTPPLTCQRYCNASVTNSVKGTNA

[10] = biological target: T1, human BCMA on NCI-H929 cells (ATCC, …); test: cell-based or functional assay; remark: listed apart in the source

T4 sequence (A0A2K5UD97 entry or part of it): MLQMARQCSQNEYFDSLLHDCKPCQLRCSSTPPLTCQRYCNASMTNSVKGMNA
T3 sequence (P07766 23-207, one chain of several): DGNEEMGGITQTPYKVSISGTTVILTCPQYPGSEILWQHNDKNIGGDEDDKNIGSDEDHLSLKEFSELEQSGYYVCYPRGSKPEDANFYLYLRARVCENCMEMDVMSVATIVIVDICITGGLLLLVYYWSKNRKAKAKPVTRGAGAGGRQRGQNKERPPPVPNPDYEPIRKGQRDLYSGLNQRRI
T2 sequence (Q95LI5 22-198, one chain of several): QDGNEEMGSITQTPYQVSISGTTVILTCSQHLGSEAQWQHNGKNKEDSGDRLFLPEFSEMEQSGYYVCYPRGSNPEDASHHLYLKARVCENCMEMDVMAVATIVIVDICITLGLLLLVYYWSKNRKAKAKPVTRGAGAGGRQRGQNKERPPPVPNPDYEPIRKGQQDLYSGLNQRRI

B1: PR001990 (bispecific antibody, human IgG1, lambda, L234A L235A)
light: QAVVTQEPSLTVSPGGTVTLTCRSSTGAVTTSNYANWVQQKPGQAPRGLIGGTNKRAPWTPARFSGSLLGDKAALTLLGAQPEDEAEYFCALWYSNLWVFGGGTKLTVLGQPKAAPSVTLFPPSSEELQANKATLVCLISDFYPGAVTVAWKADSSPVKAGVETTTPSKQSNNKYAASSYLSLTPEQWKSHRSYSCQVTHEGSTVEKTVAPTECS
heavy: EVQLLESGGGLVQPGGSLRLSCAASGFTFNTYAMNWVRQAPGKGLEWVSRIRSKYNNYATYYADSVKDRFTISRDDSKSTLYLQMNSLRAEDTAVYYCVRHGNFGNSYVSWFAYWGQGTLVTVSSASTKGPSVFPLAPSSKSTSGGTAALGCLVKDYFPEPVTVSWNSGALTSGVHTFPAVLQSSGLYSLSSVVTVPSSSLGTQTYICNVNHKPSNTKVDKKVEPKSCDKTHTCPPCPAPEAAGGPSVFLFPPKPKDTLMISRTPEVTCVVVDVSHEDPEVKFNWYVDGVEVHNAKTKPREEQYNSTYRVVSVLTVLHQDWLNGKEYKCKVSNKALGAPIEKTISKAKGQPREPQVYTLPPCREEMTKNQVSLWCLVKGFYPSDIAVEWESNGQPENNYKTTPPVLDSDGSFFLYSKLTVDKSRWQQGNVFSCSVMHEALHNHYTQKSLSLSPGK
chain: EVQLVETGGGLIQPGGSLRLSCAASGFTVSDNYMTWVRQAPGKGLEWVSVIFSGGNTYYADSVKGRFTISRDNAKNTLYLQMNSLRAEDTALYYCARRNYDDTRGTDVFDIWGQGTMVTVSSASEPKSSDKTHTCPPCPAPEAAGGPSVFLFPPKPKDTLMISRTPEVTCVVVDVSHEDPEVKFNWYVDGVEVHNAKTKPREEQYNSTYRVVSVLTVLHQDWLNGKEYKCKVSNKALGAPIEKTISKAKGQPREPQVCTLPPSREEMTKNQVSLSCAVKGFYPSDIAVEWESNGQPENNYKTTPPVLDSDGSFFLVSKLTVDKSRWQQGNVFSCSVMHEALHNHYTQKSLSLSPGK
[1]
  IFN-γ release, EC50: 1.36 nM
  IFN-γ release, Maximum: 1230 pg/mL
  IL-2 release, EC50: 5.29 nM
  IL-2 release, Maximum: 185 pg/mL
  IL-6 release, EC50: 8.2 nM
  IL-6 release, Maximum: 273 pg/mL
  IL-10 release, EC50: 1.96 nM
  IL-10 release, Maximum: 777 pg/mL
  NCI-H929 killing, EC50: 0.59 nM
  NCI-H929 killing, Maximum killing rate %: 61.4%
  TNF-α release, EC50: 5.49 nM
  TNF-α release, Maximum: 1200 pg/mL
[2]
  Killing EC50 (nM), T cell + NCI-H929, + 10 ng/mL sAPRIL: 0.0879 nM
  Killing EC50 (nM), T cell + NCI-H929, + 10 ng/mL sBAFF: 0.0787 nM
  Killing EC50 (nM), T cell + NCI-H929, + 100 ng/mL sAPRIL: 0.154 nM
  Killing EC50 (nM), T cell + NCI-H929, + 100 ng/mL sBAFF: 0.094 nM
  Killing EC50 (nM), T cell + NCI-H929, no soluble ligand: 0.0733 nM
[3]
  Killing EC50 (nM), T cell + NCI-H929, + 62.5 ng/ml sBCMA: 0.176 nM
  Killing EC50 (nM), T cell + NCI-H929, + 125 ng/mL sBCMA: 0.234 nM
  Killing EC50 (nM), T cell + NCI-H929, + 250 ng/mL sBCMA: 0.387 nM
  Killing EC50 (nM), T cell + NCI-H929, + 500 ng/mL sBCMA: 0.546 nM
  Killing EC50 (nM), T cell + NCI-H929, no sBCMA: 0.0787 nM
[4]
  Maximum MFI: 15600 MFI
[5]
  Maximum MFI: 5450 MFI
[6]
  Maximum MFI: 350000 MFI
[7]
  Kd: 3.35 nM
  koff: 0.0025 s⁻¹
  kon: 746000 M⁻¹ s⁻¹
[8]
  KD ratio (cy BCMA/hu BCMA): 1.72
[9]
  Kd: 1.95 nM
  koff: 0.000629 s⁻¹
  kon: 322000 M⁻¹ s⁻¹

B2: PR002309 (bispecific antibody, human IgG1, lambda, L234A L235A)
light: B1 light
heavy: B1 heavy with N30S
chain: EVQLVETGGGLIQPGGSLRLSCAASGFTVSDNYMTWVRQAPGKGLEWVSVIFSGGNTYYADSVKGRFTISRDNAKNTLYLQMNSLRAEDTALYYCARRNYDDTRGTDVFDIWGQGTMVTVSSRTGGGGSGGGGSGGGGSKLEVQLVETGGGLIQPGGSLRLSCAASGFTVSDNYMTWVRQAPGKGLEWVSVIFSGGNTYYADSVKGRFTISRDNAKNTLYLQMNSLRAEDTALYYCARRNYDDTRGTDVFDIWGQGTMVTVSSASEPKSSDKTHTCPPCPAPEAAGGPSVFLFPPKPKDTLMISRTPEVTCVVVDVSHEDPEVKFNWYVDGVEVHNAKTKPREEQYNSTYRVVSVLTVLHQDWLNGKEYKCKVSNKALGAPIEKTISKAKGQPREPQVCTLPPSREEMTKNQVSLSCAVKGFYPSDIAVEWESNGQPENNYKTTPPVLDSDGSFFLVSKLTVDKSRWQQGNVFSCSVMHEALHNHYTQKSLSLSPGK
[1]
  IFN-γ release, EC50: 0.0194 nM
  IFN-γ release, Maximum: 1950 pg/mL
  IL-2 release, EC50: 0.0375 nM
  IL-2 release, Maximum: 222 pg/mL
  IL-6 release, EC50: 0.195 nM
  IL-6 release, Maximum: 209 pg/mL
  IL-10 release, EC50: 0.0298 nM
  IL-10 release, Maximum: 1050 pg/mL
  NCI-H929 killing, EC50: 0.00772 nM
  NCI-H929 killing, Maximum killing rate %: 69.5%
  TNF-α release, EC50: 0.0445 nM
  TNF-α release, Maximum: 1300 pg/mL
[2]
  Killing EC50 (nM), T cell + NCI-H929, + 10 ng/mL sAPRIL: 0.000538 nM
  Killing EC50 (nM), T cell + NCI-H929, + 10 ng/mL sBAFF: 0.000447 nM
  Killing EC50 (nM), T cell + NCI-H929, + 100 ng/mL sAPRIL: 0.000991 nM
  Killing EC50 (nM), T cell + NCI-H929, + 100 ng/mL sBAFF: 0.000474 nM
  Killing EC50 (nM), T cell + NCI-H929, no soluble ligand: 0.000439 nM
[3]
  Killing EC50 (nM), T cell + NCI-H929, + 62.5 ng/mL sBCMA: 0.00296 nM
  Killing EC50 (nM), T cell + NCI-H929, + 125 ng/mL sBCMA: 0.00347 nM
  Killing EC50 (nM), T cell + NCI-H929, + 250 ng/mL sBCMA: 0.005 nM
  Killing EC50 (nM), T cell + NCI-H929, + 500 ng/ml sBCMA: 0.0088 nM
  Killing EC50 (nM), T cell + NCI-H929, no sBCMA: 0.000393 nM
[4]
  Maximum MFI: 11700 MFI
[6]
  Maximum MFI: 317000 MFI
[7]
  Kd: 0.141 nM
  koff: 0.000116 s⁻¹
  kon: 823000 M⁻¹ s⁻¹
[8]
  KD ratio (cy BCMA/hu BCMA): 3.16
[9]
  Kd: 0.0448 nM
  koff: 1.89e-05 s⁻¹
  kon: 422000 M⁻¹ s⁻¹

B3: PR003178 (bispecific antibody, human IgG1, lambda, L234A L235A)
light: B1 light
heavy: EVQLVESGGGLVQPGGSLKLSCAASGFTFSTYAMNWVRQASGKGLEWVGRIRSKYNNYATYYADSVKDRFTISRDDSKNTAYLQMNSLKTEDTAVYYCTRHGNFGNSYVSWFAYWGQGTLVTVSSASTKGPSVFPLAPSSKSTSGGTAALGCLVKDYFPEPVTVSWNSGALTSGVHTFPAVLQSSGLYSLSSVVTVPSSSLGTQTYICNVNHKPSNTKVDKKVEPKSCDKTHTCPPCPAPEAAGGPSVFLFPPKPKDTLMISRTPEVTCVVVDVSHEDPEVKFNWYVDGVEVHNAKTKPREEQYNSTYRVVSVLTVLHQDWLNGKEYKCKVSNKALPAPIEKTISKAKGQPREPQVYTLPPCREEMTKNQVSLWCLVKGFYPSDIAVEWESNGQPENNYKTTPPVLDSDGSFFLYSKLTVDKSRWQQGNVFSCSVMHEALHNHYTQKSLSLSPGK
chain: EVQLVETGGGLIQPGGSLRLSCAASGFTVSDNYMTWVRQAPGKGLEWVSVIFSGGNTYYADSVKGRFTISRDNAKNTLYLQMNSLRAEDTALYYCARRNYDDTRGTDVFDIWGQGTMVTVSSGGGGSGGGGSGGGGSEVQLVETGGGLIQPGGSLRLSCAASGFTVSDNYMTWVRQAPGKGLEWVSVIFSGGNTYYADSVKGRFTISRDNAKNTLYLQMNSLRAEDTALYYCARRNYDDTRGTDVFDIWGQGTMVTVSSASEPKSSDKTHTCPPCPAPEAAGGPSVFLFPPKPKDTLMISRTPEVTCVVVDVSHEDPEVKFNWYVDGVEVHNAKTKPREEQYNSTYRVVSVLTVLHQDWLNGKEYKCKVSNKALPAPIEKTISKAKGQPREPQVCTLPPSREEMTKNQVSLSCAVKGFYPSDIAVEWESNGQPENNYKTTPPVLDSDGSFFLVSKLTVDKSRWQQGNVFSCSVMHEALHNHYTQKSLSLSPGK
[10]
  IFN-γ release, EC50: 0.0595 nM
  IFN-γ release, Maximum: 1210 pg/mL
  IL-2 release, EC50: 0.175 nM
  IL-2 release, Maximum: 101 pg/mL
  IL-6 release, EC50: 0.0448 nM
  IL-6 release, Maximum: 89.7 pg/mL
  IL-10 release, EC50: 0.104 nM
  IL-10 release, Maximum: 322 pg/mL
  NCI-H929 killing, EC50: 0.0102 nM
  NCI-H929 killing, Maximum killing rate %: 56.8%
  TNF-α release, EC50: 0.0281 nM
  TNF-α release, Maximum: 1330 pg/mL
[2]
  Killing EC50 (nM), PBMC + NCI-H929, + 10 ng/mL sBAFF: 0.005 nM
  Killing EC50 (nM), PBMC + NCI-H929, + 10 ng/ml sAPRIL: 0.009 nM
  Killing EC50 (nM), PBMC + NCI-H929, + 100 ng/mL sAPRIL: 0.011 nM
  Killing EC50 (nM), PBMC + NCI-H929, + 100 ng/mL sBAFF: 0.008 nM
  Killing EC50 (nM), PBMC + NCI-H929, no soluble ligand: 0.007 nM
[3]
  Killing EC50 (nM), PBMC + NCI-H929, + 62.5 ng/ml sBCMA: 0.009 nM
  Killing EC50 (nM), PBMC + NCI-H929, + 125 ng/mL sBCMA: 0.014 nM
  Killing EC50 (nM), PBMC + NCI-H929, + 250 ng/ml sBCMA: 0.065 nM
  Killing EC50 (nM), PBMC + NCI-H929, + 500 ng/ml sBCMA: 0.12 nM
  Killing EC50 (nM), PBMC + NCI-H929, no sBCMA: 0.005 nM
[4]
  Maximum MFI: 10700 MFI
[6]
  Maximum MFI: 23900 MFI
[7]
  Kd: 0.319 nM
  koff: 0.000262 s⁻¹
  kon: 822000 M⁻¹ s⁻¹
[8]
  KD ratio (cy BCMA/hu BCMA): 1.35
[9]
  Kd: 0.236 nM
  koff: 0.000117 s⁻¹
  kon: 494000 M⁻¹ s⁻¹
